Measured values published in paper doi:10.1101/2024.03.25.586599 (bioRxiv, 2024).
Values belong to the binder of their own block, whether it stands above or below them. Ends that are not written are not given here. * marks the point of attachment. Biotin = O=C1N[C@H]2[C@H](CS[C@H]2CCCCC(=O)*)N1

Tests used:
Test in all cases: SPR
[1] = target: T1, N-terminally biotinylated synthetic FLAG peptide, 4-residue variant (DYKD) (synthetic construct)
T1 chain: Biotin-DYKD

[2] = target: T2, N-terminally biotinylated synthetic FLAG peptide, Asp5Glu (DYKDEDDK) (synthetic construct, point mutant, not fully specified (N-terminus))
T2 chain: DYKDEDDK

[3] = target: T3, N-terminally biotinylated synthetic FLAG peptide, truncated, Asp5Glu (DYKDED) (synthetic construct, point mutant)
T3 chain: Biotin-DYKDED

[4] = target: T4, N-terminally biotinylated synthetic FLAG peptide, wildtype (DYKDDDDK) (synthetic construct, not fully specified (N-terminus))
T4 chain: DYKDDDDK

[5] = target: T5, N-terminally biotinylated synthetic FLAG peptide, six-residue truncated version (DYKDDD) (synthetic construct)
T5 chain: Biotin-DYKDDD

[6] = target: T6, N-terminally biotinylated synthetic FLAG peptide, 5-residue variant (DYKDD) (synthetic construct)
T6 chain: Biotin-DYKDD

[7] = target: T1, N-terminally biotinylated synthetic …
[8] = target: T2, N-terminally biotinylated synthetic …
[9] = target: T3, N-terminally biotinylated synthetic …
[10] = target: T4, N-terminally biotinylated synthetic …
[11] = target: T7, N-terminally biotinylated synthetic FLAG peptide truncated by one C-terminal residue (DYKDDDD) (synthetic construct)
T7 chain: Biotin-DYKDDDD

[12] = target: T5, N-terminally biotinylated synthetic …
[13] = target: T6, N-terminally biotinylated synthetic …
[14] = target: T7, N-terminally biotinylated synthetic …

B1: anti-FLAG M2 IgG (wildtype, recombinant) (antibody, V domains shown)
VH: QVQLQQSAAELARPGASVKMSCKASGYSFTTYTIHWVKQRPGQGLEWIGYINPSSGYAAYNQNFKDETTLTADPSSSTAYMELNSLTSEDSAVYYCAREKFYGYDYWGQGATLTVSS
VL: DVLMTQIPLSLPVSLGDQASISCRSSQSIVHRNGNTYLEWYLLKPGQSPKLLIYKVSNRFSGVPDRFSGSGSGTDFTLKISRVEAEDLGVYYCFQGSHVPYTFGGGTKLEIR
KD, first site (two-site binding model) [1]: 52.9 ± 22.1 nM | KD, first site (two-site binding model) [2]: 2.23 ± 0.25 nM | KD, first site (two-site binding model) [3]: 10.2 ± 0.48 nM | KD, first site (two-site binding model) [4]: 2.95 ± 0.31 nM | KD, first site (two-site binding model) [5]: 9.72 ± 2.6 nM | KD, first site (two-site binding model) [6]: 154 ± 100 nM

B4: anti-FLAG M2 Fab (wildtype, recombinant) (Fab, V domains shown)
VH: QVQLQQSAAELARPGASVKMSCKASGYSFTTYTIHWVKQRPGQGLEWIGYINPSSGYAAYNQNFKDETTLTADPSSSTAYMELNSLTSEDSAVYYCAREKFYGYDYWGQGATLTVSS
VL: DVLMTQIPLSLPVSLGDQASISCRSSQSIVHRNGNTYLEWYLLKPGQSPKLLIYKVSNRFSGVPDRFSGSGSGTDFTLKISRVEAEDLGVYYCFQGSHVPYTFGGGTKLEIR
Kd [8]: 1780 ± 130 nM | Kd [10]: 1910 ± 240 nM

Results, then the binder that gave them:

fold drop in affinity against the wildtype Fab [7]: ~20 fold | fold drop in affinity against the wildtype Fab [8]: ~20 fold | fold drop in affinity against the wildtype Fab [9]: ~20 fold | fold drop in affinity against the wildtype Fab [10]: ~20 fold | fold drop in affinity against the wildtype Fab [11]: ~20 fold | fold drop in affinity against the wildtype Fab [12]: ~20 fold | fold drop in affinity against the wildtype Fab [13]: ~20 fold
B2: anti-FLAG M2 Fab, heavy chain K100R (Fab, V domains shown)
VH: QVQLQQSAAELARPGASVKMSCKASGYSFTTYTIHWVKQRPGQGLEWIGYINPSSGYAAYNQNFKDETTLTADPSSSTAYMELNSLTSEDSAVYYCARERFYGYDYWGQGATLTVSS
VL: DVLMTQIPLSLPVSLGDQASISCRSSQSIVHRNGNTYLEWYLLKPGQSPKLLIYKVSNRFSGVPDRFSGSGSGTDFTLKISRVEAEDLGVYYCFQGSHVPYTFGGGTKLEIR

fold drop in affinity against the wildtype IgG [1]: ~20 fold | fold drop in affinity against the wildtype IgG [2]: ~20 fold | fold drop in affinity against the wildtype IgG [3]: ~20 fold | fold drop in affinity against the wildtype IgG [4]: ~20 fold | fold drop in affinity against the wildtype IgG [14]: ~20 fold | fold drop in affinity against the wildtype IgG [5]: ~20 fold | fold drop in affinity against the wildtype IgG [6]: ~20 fold
B3: anti-FLAG M2 IgG, heavy chain K100R (antibody, V domains shown)
VH: QVQLQQSAAELARPGASVKMSCKASGYSFTTYTIHWVKQRPGQGLEWIGYINPSSGYAAYNQNFKDETTLTADPSSSTAYMELNSLTSEDSAVYYCARERFYGYDYWGQGATLTVSS
VL: DVLMTQIPLSLPVSLGDQASISCRSSQSIVHRNGNTYLEWYLLKPGQSPKLLIYKVSNRFSGVPDRFSGSGSGTDFTLKISRVEAEDLGVYYCFQGSHVPYTFGGGTKLEIR
